Measured values from patent EP4674870A1 (Sunshine Guojian Pharmaceutical (Shanghai) Co., Ltd., dated 2026).

T1: human TL1A-His protein (human, UniProt O95150 72-251)
T1 construct: also called human TL1A extracellular domain (TL1A-ECD) with 6×His tag
T1 sequence: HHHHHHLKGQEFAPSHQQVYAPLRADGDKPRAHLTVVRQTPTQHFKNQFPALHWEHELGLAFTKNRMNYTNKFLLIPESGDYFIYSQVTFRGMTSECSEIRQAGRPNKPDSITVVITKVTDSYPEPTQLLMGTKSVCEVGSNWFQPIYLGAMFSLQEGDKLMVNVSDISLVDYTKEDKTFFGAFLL


Columns and labels:
human TL1A-His protein [1] = biological target: T1, human TL1A-His protein; test: SPR (Biacore 8K), antibody captured on Protein A chip, TL1A-his as analyte
human TL1A-His protein [2] = biological target: T1, human TL1A-His protein; test: ELISA

Molecule | Kd (human TL1A-His protein [1]) | koff (human TL1A-His protein [1]) | kon (human TL1A-His protein [1]) | binding result (human TL1A-His protein [2])
311V25 (antibody, human IgG1, kappa, L234A L235A, V domains shown) VH: EVQLVESGGGLVQPGGSLKLSCAASGFTFSNYWMNWVRQASGKGLEWVGGIRLKSNNYATQYAESVKGRFTISRDDSKNTAYLQMNSLKTEDTAVYYCTPLLLNGMDYWGQGTTVTVSS VL: EIVLTQSPDFQSVTPKEKVTITCSASSSVSYMHWYQQKPDQSPKLWIYDTSNLASGVPSRFSGSGSGTDFTLTINSLEAEDAATYYCFQESGYPFTFGQGTKLEIKR |  |  |  | binds
311V31 (antibody, human IgG1, kappa, L234A L235A, V domains shown) VH: EVQLVESGGGLVQPGGSLKLSCAASGFTFSNYWMNWVRQASGKGLEWVGGIRLKSNNYKTQYAESVKGRFTISRDDSKNTAYLQMNSLKTEDTAVYYCTPLLLNGMDYWGQGTTVTVSS VL: EIVLTQSPDFQSVTPKEKVTITCSASSSVSYMHWYQQKPDQSPKLWIYDTSNLASGVPSRFSGSGSGTDFTLTINSLEAEDAATYYCFQESGYPFTFGQGTKLEIKR |  |  |  | binds
311V25-7 (antibody, human IgG1, kappa, L234A L235A, V domains shown) VH: EVQLVESGGGLVQPGGSLKLSCAASGFTFSNYWMNWVRQASGKGLEWVGGIRLKSNNYATQYAESVKGRFTISRDDSKNTAYLQMNSLKTEDTAVYYCTPLLLSGMDYWGQGTTVTVSS VL: EIVLTQSPDFQSVTPKEKVTITCSASSSVSYMHWYQQKPDQSPKLWIYDTSNLASGVPSRFSGSGSGTDFTLTINSLEAEDAATYYCFQESGYPFTFGQGTKLEIKR |  |  |  | binds
311V31-7 (antibody, human IgG1, kappa, L234A L235A, V domains shown) VH: EVQLVESGGGLVQPGGSLKLSCAASGFTFSNYWMNWVRQASGKGLEWVGGIRLKSNNYKTQYAESVKGRFTISRDDSKNTAYLQMNSLKTEDTAVYYCTPLLLSGMDYWGQGTTVTVSS VL: EIVLTQSPDFQSVTPKEKVTITCSASSSVSYMHWYQQKPDQSPKLWIYDTSNLASGVPSRFSGSGSGTDFTLTINSLEAEDAATYYCFQESGYPFTFGQGTKLEIKR |  |  |  | binds
311V34 (antibody, human IgG1, kappa, L234A L235A, V domains shown) VH: EVQLVESGGGLVQPGGSLKLSCAASGFTFSNYWMNWVRQASGKGLEWVGGIRLKSNNYRTQYAESVKGRFTISRDDSKNTAYLQMNSLKTEDTAVYYCTPLLLNGMDYWGQGTTVTVSS VL: EIVLTQSPDFQSVTPKEKVTITCSASSSVSYMHWYQQKPDQSPKLWIYDTSNLASGVPSRFSGSGSGTDFTLTINSLEAEDAATYYCFQESGYPFTFGQGTKLEIKR |  |  |  | binds
311V34-7 (antibody, human IgG1, kappa, L234A L235A, V domains shown) VH: EVQLVESGGGLVQPGGSLKLSCAASGFTFSNYWMNWVRQASGKGLEWVGGIRLKSNNYRTQYAESVKGRFTISRDDSKNTAYLQMNSLKTEDTAVYYCTPLLLSGMDYWGQGTTVTVSS VL: EIVLTQSPDFQSVTPKEKVTITCSASSSVSYMHWYQQKPDQSPKLWIYDTSNLASGVPSRFSGSGSGTDFTLTINSLEAEDAATYYCFQESGYPFTFGQGTKLEIKR |  |  |  | binds

The next lines start with the values.

Kd (human TL1A-His protein [1]) | koff (human TL1A-His protein [1]) | kon (human TL1A-His protein [1]) | binding result (human TL1A-His protein [2]) | Molecule
0.537 nM | 0.000166 s⁻¹ | 308000 M⁻¹ s⁻¹ |  | positive control antibody PRA023
0.394 nM | 0.000159 s⁻¹ | 405000 M⁻¹ s⁻¹ |  | humanized antibody 31122 (antibody, human IgG1, kappa, L234A L235A, V domains shown, Humanized from 311C9E10; human IgG1/kappa) VH: EVQLVESGGGLVQPGGSLKLSCAASGFTFSNYWMNWVRQASGKGLEWVGGIRLKSNNYTTQYAESVKGRFTISRDDSKNTAYLQMNSLKTEDTAVYYCTPLLLNGMDYWGQGTTVTVSS VL: EIVLTQSPDFQSVTPKEKVTITCSASSSVSYMHWYQQKPDQSPKLWIYDTSNLASGVPSRFSGSGSGTDFTLTINSLEAEDAATYYCFQESGYPFTFGQGTKLEIKR
0.212 nM | 0.000212 s⁻¹ | 1e+06 M⁻¹ s⁻¹ |  | humanized antibody 72851 (antibody, human IgG1, kappa, L234A L235A, V domains shown, Humanized from 728H4D9; human IgG1/kappa) VH: QVQLVQSGAEVKKPGASVKVSCKASGYSFTGYTMNWVRQAPGQNLEWIGLINPYSGGTNYNQKFKGRATLTVDTSISTAYMELSRLRSDDTAVYYCASIYQRHDGIAYWGQGTLVTVSS VL: EIVLTQSPDFQSVTPKEKVTITCSASSSVNYMHWYQQKPDQSPKLLIKDTSKLASGVPSRFSGSGSGTDFTLTINSLEAEDAATYYCQQWSSSPYTFGGGTKVEIKR
